Assay results from the DeepSol protein solubility set.

Experiment: soluble on expression in E. coli; label from the status in PepcDB or PDB records

Row | Sequence | soluble on expression in E. coli
1 | GPGSMLRLSASRRSAQNILHDIQAAVESRSIMATSSFAQRRSFLVALSEELHRNSEHIIHANRRDCDLFGRQQQQRGTPSVTIPPTLPSTSAATSLQPSSSLHGGPAGYPPFLGRPGHRVGDAQGISVAAENPATATPAPNAAEGSGASSPRRQSSLDYVAGASPVGSPDPNGAGGAAAGGRAAASPAGAGPALGETAAGSRATSTSGTAAPVSPSRWAARASSASLQLVPTAVSGHATRTEAGGGGGHLLITPDNHFLISPLRLDKLHTTIEYLLCQPDPIAIPPSCWLHDSAEGDSGAAANSLREQGSLGAAPGHNSPPPPSAAGSHAGCGRCTRRTDRLEVYELSVPLGMVGILSRFRPRISIDTVAMGLFAGNTVLLDGGVSLYNTNMALMSSVRRALTTAGLSPSAVVCVESYDAAHRSTSEWLQLSDCVDLAVVCGPPKLYQFASRYSTIPLMRATGQFSSVYVDQSASFEVALEVILNSKFQKLGAANAVTTVIVHSDFPRYTELVLALAAEGAVLLGDVTAQERVPDCVLELASEEEYQGLSQYGLRDAARTLCLKTVDSLAQALFFIESFGSKQSDCIVATDLEVCATYCRHVDTAVALVNASTRLSSGVPLGCGVDFAISTSKTHCRGPLTVEMMTTRKLVARSLSAHHGALR | not soluble
2 | GPGSMLRWQMQPVRTSVRNFIASGFPSKKLRYARLVDVEECASRPQFQKLLQSYLSDFFAKSHENGSTGSSPWFTAVPPSLRNSVEETVNYLGMLVAIDFRHWGEDPPDATPTGSRVENICGFYAELPEGSAETSGSVSYGGKRLIRGSMAMVHLLCRAVEVYHLNWHCPQFLQQFATTEDAMEALERCFLGYREDGHTSMWMPAARERVELLLSLSRSLVEKDTSFFKMLCLSEGYLYHPIFPHLGFVEMLVELHPRYYDVCVLRGEVGGGKDSDQGDEIVIPMLKLAQLTVMAIEEAVSAMDTVAANTPNVTEAPFPFSGAHGVFKDKHHLTVCCDYQLPKALRSLGLVEYDSYLASLVDTGVLLAAGGVEECCIRVAALVASDLLLDYLRSSCACTTGREWRPESTSRVWDAPALDCMLWWIGRHYVDSAVKHHLCRTIMY | not soluble
3 | GPGSMLTGALRLSSHRVQDFIVTTCDKAFMLSSRTRLDKKTVETILLAGYSRIPVYLNDNRRHILGTLIVQSLVILCFTNPNKPPRAGEYPLLETLRLPASTTLYNSYLAFQKNSSNMAVVYDNCGVMVGLWTLTDLLCTLYNTSPAHEGSNTHRQELMVTLLESMKAMNAARRKAQGNVNSAIESEEFFVGGRKK | not soluble
4 | GPGSMMMQRSQKMLLDPASFIERPPRNTLFNIVPQGHEYVVERLGRYHRTLDSGWWVVVPFIDKIRYNYNVKEQGIEIPNQSAITSDNVMVEIDGVLFLKIVDSCKASYNIENPVFNLINLAQTTMRSEIGRMSLDSLFRERASLNQSTVEVLRREANEWGIECKRYEIRDIVVSELVRRSMDLQAEAERKKRKLILESEGESTATINRANGMKIAQQCVADAEKYTAERQSEGAAAAIRVKAAAVSDNISIVSDAIEKAK | not soluble
5 | GPGSMMSLPVEAVKEFLLKLQDDICHAIEAEDEQATFMEDKWTREGGGGGRTRVIANGAVIEKGGVNFSHVYGKGLPGSSTERHPDMAGCNYQAMGVSLVIHPKNPHVPTSHANVRLFVAEKEGKEPVWWFGGGFDLTPYYAVEEDCYYFHHVAQELCRPFGADVYERFKAWCDEYFFIPHRNEARGIGGLFFDDLNEWPFEKCFAFMQAVGKGFIDAYIPIVNRRKNTPYTEQQVEFQEFRRGRYAEFNLVIDRGTKFGLQSGGRTESILMSLPPRARWGYNWHPEPGTPEARLTEYFLTKKQWV | soluble
6 | GPGSMNKSAKDTANPLFPATAIATIDVRAIVANYRTLAQHVAPTECSAVVKANAYGLGAHKIAPALYQAGCRTFFVAQIEEALQLKAVLPENVMIALLNGFPHKAEEFVAQSGIIPLLNSWSTIEDWQTLCQKKNKKFPAIIQVDTNMSRLGLDKKELQKLIKNPTIFEKAEIKYILSHLANGEDASHSSNNKQLAAFKRVLAQLPTCKVSFANSGGIFLGSDFYFDLVRPGIALYGVDPHGKHPTPLKAVVKVEAQVLQSRFIDAGIPVGYRESFMTRRPSTLATISIGYADGWPRILSNKGTVYFNGHKLPIVGHISMDSIIVDATDLDKKPQRGDWVELIGPHQPLEKVSTDTNTIPHEILTSLGKRYKRIYI | soluble
7 | GPGSMNNDKSEFYITGMTAGKLPMNNQQMVGYQRRMKIQVNKLMTEKQMTRMDAAAQGNTNTFEPFARERRRATAHVEQYPNIGHSPSGDDATTPKDVIPMLLIKKQLREFGRGRLRMPFTDTLSANVEKFTTPVGQTQVTGQPEILVTEKKLSAEGI | not soluble
8 | GPGSMNNRHSGSEKTPATQKKDSLAPSATNADITKVKICSGHTRPICHINYSNIIDGTFWLVTSCHDAKPMLRNGETGDWVGTFEGHKGAVYCSVFNEDATRLVTGSGDYSSMVWNAVTGDKLHTWSHPKYIKSCDWCGNKIATGCVDGLVRIFDAQAYDANPVCFDSTEKVNQVKATYFIDHTTMVTACENTIMKWDLRDTSLPYLRKEIPGLNFLEYTHSNSIVAAHEKSISFIDTTSLEIKSSFTTSDDIECASLSPNGQNVAAGSKLKAKEFTVDGTELESHRGHHGPIFHIRWAPDGKSFTSGAEDGMARIWPSHDIIETYDNEN | not soluble
9 | GPGSMPAINREELDRRVEQIYDQVVAWRRYIHENPDLSFEEQPTAAYIKGELQKMDAEGRWLHISQPESNCVVADLKGGGGDGPIIALRADIDALPVEELTDVPFASKKQGVMHACGHDTHAAMLLGATKLLLEDAGRIKGTVRLLFQPAEEVPPGGAQMMIEKGCMEGVAMVFAEHIIPMKEGPTGTVLVKRGPFLSSSDTLHVEIIGRGGHASMPESSIDPIAIACLAVTALQQVVSRRMPPSKCPILTITTIASSSDSYNVIPDRVTLKGTLRTQDREVRENAKKAVAEVLHGICGSYGAMCSLNWLPGYDVTVNTDSAYDVGMRVFAQVLPSKDQVVVLSACMSPSEDFSEFAKVAPANYVGIGCYNPGKGCTAVNHNAKFCVDEEAMKVGVKVHYGTIHELLMQ | not soluble
10 | GPGSMPAYSEVKGTCGTPVLDQLIGYYVNIQSRKMYYKDFLRIEHQAVRWAFADIRKNSEALAHGLLQTGVRPGDRVLAIQPCNCETFVLQLSCAKIGALLCIVPQDTISADKLRFYLNEFQPRHLVAREWINVPEMKQGELVERNMHFWDTIYNVIPELGLSYPGQKFQWVHSQEFYYLKKIIITDHNMNLLGVTPMRKMLVWGPFSYYEQRLRRLSALLHPDDPVLALEDPNPAMEDKLHITYSHRNCVNAGFLFGQLMQLKAETRFGVMPNHHTDPIGAIIAPYAALTSGAVLVHIHSDMFTDDHAINGIEKLCVEEVETLVGRKADFDLILKHAGNFDADQFEHLRSVVIFEDGIEAPVSEEYLNKLSKALSLDDVYVFRGPIEASYMLTWRTLKKGSQGMVPHVEAKVVGDRGTSDAKVLVAGTRGNLRLKGPHVTAGYYNNAGLMTELIDEHGFASTSREAMIDGKDNITLMSAQTY | not soluble
11 | GPGSMPVANEASSFNVLYALNKCNPKRRRWMNGWLYVNFDRATLVDGISRKAVGVVSGTGLLPNKVFKMMVEADNGAAWEMGTEVVIGQYITQIEGTTRLHLIPYTLFSGVDCIDDNAAEEVSSVELAGSSMTSRVVNVTAGFSATRADAPLSRRKTTEQLISELRGAYPQIFI | not soluble
12 | GPGSMQEEVTEHKYNIVFSRDPVPSGLSEEQYYPMRLSNGSAYLCVLPDITVEEKKTLQAEDSELDVPLSLEHVAVVNRALKNMCYTMEESWWTYRLCWGSGVEQFHRSAVAGDSKSNAPKQMKEDPHFVLGVAPPADVLDLRYGVNTKGLRYIYTIYSDGLTCDLTQLPRTTEVQLYCAREGEGNSPTMRVREAEVCRYIVSLTAKEVCLLGLKEIQQRYGVITCHETKPTNTVDWNNKQQG | not soluble
